From article PMC9609006 come the findings set out here.

Substrate in data set [1]: OC[C@H]1O[C@H](F)[C@H](O)[C@@H](O)[C@@H]1O
Nature of the data set: purified protein. As to conditions: thioglycosynthase reaction; glycosyl donor; thiol acceptor p-nitrothiophenol.

Substrate in data set [2]: O=[N+]([O-])c1ccc(S)cc1
Nature of the data set: purified protein. Particulars: thioglycosynthase reaction; thiol acceptor; donor α-D-glucopyranosyl fluoride.

B1: HorGH1 (Halothermothrix orenii H 168; E166A/E354G/M299R) (protein)
chain: MAKIIFPEDFIWGAATSSYQIEGAFNEDGKGESIWDRFSHTPGKIENGDTGDIACDHYHLYREDIELMKEIGIRSYRFSTSWPRILPEGKGRVNQKGLDFYKRLVDNLLKANIRPMITLYHWDLPQALQDKGGWTNRDTAKYFAEYARLMFEEFNGLVDLWVTHNAPWVVAFEGHAFGNHAPGTKDFKTALQVAHHLLLSHGMAVDIFREEDLPGEIGITLNLTPAYPAGDSEKDVKAASLLDDYINAWFLSPVFKGSYPEELHHIYEQNLGAFTTQPGDMDIISRDIDFLGINYYSRRVVRHKPGDNLFNAEVVKMEDRPSTEMGWEIYPQGLYDILVRVNKEYTDKPLYITGNGAAFDDKLTEEGKIHDEKRINYLGDHFKQAYKALKDGVPLRGYYVWSLMDNFEWAYGYSKRFGLIYVDYENGNRRFLKDSALWYREVIEKGQVEAN
Take B1: the Km in “purified protein [1]” was 2.26 mM; in “purified protein [2]”, 3.82 mM.

B2: HorGH1 (Halothermothrix orenii H 168; E166A/E354G) (protein)
chain: MAKIIFPEDFIWGAATSSYQIEGAFNEDGKGESIWDRFSHTPGKIENGDTGDIACDHYHLYREDIELMKEIGIRSYRFSTSWPRILPEGKGRVNQKGLDFYKRLVDNLLKANIRPMITLYHWDLPQALQDKGGWTNRDTAKYFAEYARLMFEEFNGLVDLWVTHNAPWVVAFEGHAFGNHAPGTKDFKTALQVAHHLLLSHGMAVDIFREEDLPGEIGITLNLTPAYPAGDSEKDVKAASLLDDYINAWFLSPVFKGSYPEELHHIYEQNLGAFTTQPGDMDIISRDIDFLGINYYSRMVVRHKPGDNLFNAEVVKMEDRPSTEMGWEIYPQGLYDILVRVNKEYTDKPLYITGNGAAFDDKLTEEGKIHDEKRINYLGDHFKQAYKALKDGVPLRGYYVWSLMDNFEWAYGYSKRFGLIYVDYENGNRRFLKDSALWYREVIEKGQVEAN
With B2, the Km in the data set “purified protein [1]” amounted to 2.12 mM; in the data set “purified protein [2]” it was 7.46 mM.
